Test results taken from article PMC11850643 (Nature Communications, 2025).

Target: the molecule itself
Assay: SEC

B1: full-length MmpL4 (M. tuberculosis) (natural protein)
chain: MSTKFANDSNTNARPEKPFIARMIHAFAVPIILGWLAVCVVVTVFVPSLEAVGQERSVSLSPKDAPSFEAMGRIGMVFKEGDSDSFAMVIIEGNQPLGDAAHKYYDGLVAQLRADKKHVQSVQDLWGDPLTAAGVQSNDGKAAYVQLSLAGNQGTPLANESVEAVRSIVESTPAPPGIKAYVTGPSALAADMHHSGDRSMARITMVTVAVIFIMLLLVYRSIITVVLLLITVGVELTAARGVVAVLGHSGAIGLTTFAVSLLTSLAIAAGTDYGIFIIGRYQEARQAGEDKEAAYYTMYRGTAHVILGSGLTIAGATFCLSFARMPYFQTLGIPCAVGMLVAVAVALTLGPAVLHVGSRFGLFDPKRLLKVRGWRRVGTVVVRWPLPVLVATCAIALVGLLALPGYKTSYNDRDYLPDFIPANQGYAAADRHFSQARMKPEILMIESDHDMRNPADFLVLDKLAKGIFRVPGISRVQAITRPEGTTMDHTSIPFQISMQNAGQLQTIKYQRDRANDMLKQADEMATTIAVLTRMHSLMAEMASTTHRMVGDTEEMKEITEELRDHVADFDDFWRPIRSYFYWEKHCYGIPICWSFRSIFDALDGIDKLSEQIGVLLGDLREMDRLMPQMVAQIPPQIEAMENMRTMILTMHSTMTGIFDQMLEMSDNATAMGKAFDAAKNDDSFYLPPEVFKNKDFQRAMKSFLSSDGHAARFIILHRGDPQSPEGIKSIDAIRTAAEESLKGTPLEDAKIYLAGTAAVFHDISEGAQWDLLIAAISSLCLIFIIMLIITRAFIAAAVIVGTVALSLGASFGLSVLLWQHILAIHLHWLVLAMSVIVLLAVGSDYNLLLVSRFKQEIGAGLKTGIIRSMGGTGKVVTNAGLVFAVTMASMAVSDLRVIGQVGTTIGLGLLFDTLIVRSFMTPSIAALLGRWFWWPLRVRSRPARTPTVPSETQPAGRPLAMSSDRLG
binding result: binds
